Assay: soluble on expression in E. coli; label from the status in PepcDB or PDB records
With “MSLKAANRYVAGEKRSDGLAIARKLQAKGYGISLENIGENTKLLAQCREAKMEFDQLIEDVGAIAPGQTVSFDLSHIGLSYQFDTAYGHLIELAEKANEHEVTLMISMEESTKTDQILAVYRQAAELYSNIGITLQAHLFRTPDDLRKLVQLPGKIRIVKGAYQEPSHLAMERSDYLNNRYLELVDHLVSTNHPVSVATHDQKLLEEMERRQFLQSTDVEIEMLYGIQPSQLKLFKEKGYQTRVYLTYGHEWFLYLCHRLAEYPENIYTALIDIINPSLPKVDDMYEGHHHHHH” the “soluble on expression in E. coli” value was “not soluble”.
With “MTAVPLPILHLPHNALQMSLKQMSTVEHLALSFVSNKTRRLIKMLKEKNHITCISMGSPISIDFLSLTFDYKSNQKIVKIDNPEQNGSLSRLNLPGFTEKQWIEHFANVFIQNKKVMLISDLGERKIEDIYESIKDLNIVTLDIMTSEFQDCKLFKLFPTLEELGVSETPLSAPIFVQNFQSLTAIDVTLDDILSSNCTNLCLDDQLISDKDLNIFMRNWIKGSNPRLRKLTNTSVRHERDISDSVFFRGISQIKTRDWCDEDTFDKEFEIKNEDGVRAKVTLSTFSFIFCIEDF” the “soluble on expression in E. coli” value was “not soluble”.
For “GPGSMLAAVAVPSSSSSTAPGTNTAVSDYFLQKIHELRATQKRTLDNFERLEAQRNDLNRRVRHLKEEVQMLQESGSLVVDVVRVMGKNKVLVKAGSGQGKMVVDVDKSVDFKDLTPNARVALRSGTSAIHYILPTKVDPLVSLMKVEKAGKESTYDEIGGLSRQVKEIKEVIELPVKHPKLFEALGIEQPKGVLLYGPPGTGKTLLARAVAHHTDCTFIRVSGAELVQKYIGEGARMVRELFVMAREHSPSIIFMDEIDSIGSSRLESGENGDSEVQRTMLELLNQLDGFEASKNIKVIMATNRMDILDEALLRPGRIDRKIEFPAPDEAARFEILKIHSRKMNLTRGIDLKDIAKKTSNCSGAELKAVCTEAGMFALRERRVHITHEDFVLAVAKVMHKDQDKNVSLKKMWK”, the “soluble on expression in E. coli” value was “not soluble”.
In the case of “MGPAPRILELFYDVLSPYSWLGFEVLCRYQHLWNIKLQLRPTLIAGIMKDSGNQPPAMVPRKGQYIFKEIPLLKQFFQVPLNIPKDFFGETVKKGSINAMRFLTTVSMEQPEMLEKVSREIWMRVWSRDEDITEYQSILAAAVKAGMSTAQAQHFLEKISTQQVKNKLIENTDAACKYGAFGLPTTVAHVDGKTYMLFGSDRLELLAYLLGEKWMGPVPPTANARL”, the “soluble on expression in E. coli” value is reported as “soluble”.
In the case of “VPTDCTENWVVVYLSGPLFFMSSERLKQTLLQLETKSGVVFSMRGVPSIDSTALDILEEFCLAAEGRGQQVQFAALQPEVEKMIRTIQGNQEKEYHFSVAEFLQTVHVA”, the “soluble on expression in E. coli” value is reported as “not soluble”.
With “MGSDKIHHHHHHMMVPHLTTALTGPLLTLEKRLLDNMPRIEHWFRSQWQEYGAPFYASVDLRNAGFKLAPVDTNLFPGGFNNLNPDFLPLCIQAAMVAVEKICPDARRLLLIPENHTRNTFYLRNVHALTHILRQAGLEVRIGSIAPEITAPTFLETHDGHSILLEPVRRKANRLELDNFDSCAILLNNDLSGGIPDILQGLEQSLIPPLHAGWATRRKSNHFTAYDRVVEEFAPLIDIDPWLLNPYFDTCGGLDFHARLGEEQLAEKVDSLLAKIRRKYAEYGVKQEPFVIVKADAGTYGMGIMTVKSADDVRDLNRKQRNKMSVVKEGLKVSEVILQEGVYTFEHLKDAVAEPVIYMMDHFVVGGFYRVHTSRGADENLNAPGMHFEPLTFETPCSTPDCAGAPDAAPNRFYAYGVVARLALLAATIELQETDPDLLDERT” the “soluble on expression in E. coli” value was “not soluble”.
In the case of “MLIKGLSDTLLENPLWQKTYLRSFMQFYSTNSLSWGQLSYEEGEIRNLHYGLIHSFQTSEIDTDSLPRILPANVPKQYTLCQAGDVAFADASEDTDEIGKAVEFIRTHKASVICGLHTIHGRDIKCKTLLGFKRVAFNSHYFHDQIKRLAQGTKVFSITSSNLSSCYIYIPDIVMQKSIVVLFEAYEEQLITNKRLLEQYEKQKRYLLQQMFILEHHHHHH”, the “soluble on expression in E. coli” value is reported as “not soluble”.
For “MGEPKDSLALFLCHESESSLNEDDDETIERSDKQEPHFTTTIDDEDYVADLVLKENLRFETLPSKTTSSSDRLIAIDWILTTRTRFGFQHQTAYIAISYFDLFLHKRFIGLQKDETWAMRLLSVACLSLAAKMEERIVPGLSQYPQDHDFVFKPDVIRKTELLILSTLDWKMNLITPFHYFNYFLAKISQDNHSVSKDLVLLRSSDSLLALTKEISFTEYRQFVVAAVTTLLASSSTSSDIRLTREEIANKFGSISWWTSNENENVYLCYQRTLEIEERKHMTPPPEIAVSREPPASGSGAKRRLSFDDSDQSSPPAKRMRRL”, the “soluble on expression in E. coli” value was “soluble”.

Reference: the DeepSol protein solubility set
